Data taken from US20260274955A1 (JANUX THERAPEUTICS, published 2026).

What follows are binders tested against Anti-CD28 Fab (SEQ ID NOs: 202, 203) (assay: phage binding ELISA on captured Fab;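 note: clonal phage supernatants added briefly to wells pre-incubated with CD28 antigen or with blocking buffer only, then washed, bound phage read by ELISA using HRP-coupled anti-M13 antibody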).
Sequence of Anti-CD28 Fab (SEQ ID NOs: 202, 203) (VH, as listed by the source, chain 1 of 2): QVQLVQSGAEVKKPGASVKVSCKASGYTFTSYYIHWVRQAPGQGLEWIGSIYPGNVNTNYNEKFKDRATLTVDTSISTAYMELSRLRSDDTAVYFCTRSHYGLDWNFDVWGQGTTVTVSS
Sequence of Anti-CD28 Fab (SEQ ID NOs: 202, 203) (VL, as listed by the source, chain 2 of 2): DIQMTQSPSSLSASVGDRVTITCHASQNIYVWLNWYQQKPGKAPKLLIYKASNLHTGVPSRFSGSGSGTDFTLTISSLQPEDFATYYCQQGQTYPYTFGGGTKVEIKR
Experimental: (§1) Clonal phage were harvested as crude supernatants and screened via standard ELISAs. […] Prior to the addition of clonal phage, wells were incubated with blocking buffer and CD28 antigen or blocking buffer alone. Without washing or aspirating, clonal phage supernatants were then added to the wells and incubated for a short time. Wells were then washed followed by detection of bound phage using a horse radish conjugated anti-M13 antibody.

Row | Binder | Anti-CD28 Fab (SEQ ID NOs: 202, 203) signal
1 | YCDGHDEQYLMKCL [Phage-879] | 0.44
2 | YCTGWQVAYMQNCF [Phage-884] | 0.42
3 | YCEGHIKDYMTKCL [Phage-875] | 0.47
4 | YCDGHTWMYKQKCL [Phage-886] | 0.4
5 | YCEGHMQWYMAKCL [Phage-877] | 0.45
6 | YCEGHAPVYMQKCL [Phage-878] | 0.44
7 | YCDGHWPGYLWKCL [Phage-883] | 0.42
8 | YCEGHLGLYMKKCL [Phage-871] | 0.49
9 | YCAGHDAEYMQKCL [Phage-876] | 0.46
10 | YCAGHIPQYLNKCL [Phage-873] | 0.49
11 | YCAGHAQEYMRKCL [Phage-872] | 0.49
12 | YCDGHSTEYMWKCL [Phage-874] | 0.49
13 | YCAGHLDEYMEKCL [Phage-885] | 0.4
14 | YCDGHSQIYMSKCL [Phage-882] | 0.42

Each binder was assayed against T1, anti-CD28 Fab (SEQ ID NOs: 202, 203) (assay: phage ELISA on captured Fab;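 note: ELISA with clonal phage supernatants added to wells preincubated with CD28 antigen or with blocking buffer only, bound phage detected by HRP-conjugated anti-M13 antibody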).
T1 construct: biotinylated and captured on neutravidin coated plates in the phage ELISA
T1 sequence (VH, as listed by the source, chain 1 of 2): as the sequence (VH, as listed by the source, chain 1 of 2) above
T1 sequence (VL, as listed by the source, chain 2 of 2): as the sequence (VL, as listed by the source, chain 2 of 2) above
Experimental: as §1

Row | Binder | Anti-CD28 Fab (SEQ ID NOs: 202, 203) signal
15 | YCDGHDVEYMAKCL (on phage, pIII fusion) [Phage-470] | 1.66
16 | YCDGHDVEYMSKCL (on phage, pIII fusion) [Phage-486] | 1.64
17 | YCDGHRVEYMAKCL (on phage, pIII fusion) [Phage-522] | 1.58
18 | YCDGHAQEYRLKCL (on phage, pIII fusion) [Phage-477] | 1.65
19 | YCDGHSLLYLSKCL (on phage, pIII fusion) [Phage-472] | 1.65
20 | YCEGHLSQYMSKCL (on phage, pIII fusion) [Phage-466] | 1.66
21 | YCDGHSREYMSKCL (on phage, pIII fusion) [Phage-458] | 1.67
22 | YCDGHSREYMNKCL (on phage, pIII fusion) [Phage-469] | 1.66
23 | YCDGHSPAYIWKCL (on phage, pIII fusion) [Phage-450] | 1.68
24 | YCDGHSADYMAKCL (on phage, pIII fusion) [Phage-462] | 1.67
25 | YCDGHSPEYIGKCL (on phage, pIII fusion) [Phage-467] | 1.66
26 | YCDGHSLEYIGKCL (on phage, pIII fusion) [Phage-494] | 1.63
27 | YCDGHAPQWMAKCL (on phage, pIII fusion) [Phage-457] | 1.67
28 | YCDGHIGLYLNKCL (on phage, pIII fusion) [Phage-463] | 1.66
29 | YCEGHLPQYMRPCL (on phage, pIII fusion) [Phage-465] | 1.66
30 | YCDGHSWQYISKCL (on phage, pIII fusion) [Phage-455] | 1.67
31 | YCAGHLPEFMDKCL (on phage, pIII fusion) [Phage-468] | 1.66
32 | YCEGHSLMYMWKCL (on phage, pIII fusion) [Phage-474] | 1.65
33 | YCEGHSLMYMAKCL (on phage, pIII fusion) [Phage-563] | 1.5

Row | Binder | Anti-CD28 Fab (SEQ ID NOs: 202, 203) signal
34 | YCDGHSAEYLLKCL (on phage, pIII fusion) [Phage-478] | 1.65
35 | YCDGHSAEYLSKCL (on phage, pIII fusion) [Phage-561] | 1.51
36 | YCDGHAAEYMAKCV (on phage, pIII fusion) [Phage-459] | 1.67
37 | YCDGHSEQYMSKCL (on phage, pIII fusion) [Phage-451] | 1.68
38 | YCDGHSLQYMSKCL (on phage, pIII fusion) [Phage-589] | 1.45
39 | YCDGHSEVYMAKCL (on phage, pIII fusion) [Phage-471] | 1.66
40 | YCDGHAQEYMDKCL (on phage, pIII fusion) [Phage-500] | 1.62
41 | YCDGHAKEYMDKCL (on phage, pIII fusion) [Phage-452] | 1.68
42 | YCEGHLAVYMEKCL (on phage, pIII fusion) [Phage-473] | 1.65
43 | YCEGHLPMYMIKCL (on phage, pIII fusion) [Phage-464] | 1.66
44 | YCEGHAQEYMNKCL (on phage, pIII fusion) [Phage-460] | 1.67
45 | YCDGHSSLYMHKCL (on phage, pIII fusion) [Phage-454] | 1.67
46 | YCEGHAPQYMNKCL (on phage, pIII fusion) [Phage-456] | 1.67
47 | YCEGHAPQYMTKCL (on phage, pIII fusion) [Phage-461] | 1.67
48 | YCAGHAAEYMTKCL (on phage, pIII fusion) [Phage-475] | 1.65
49 | YCDGHSTEYMEKCL (on phage, pIII fusion) [Phage-453] | 1.68
50 | YCDGHSQEYMEKCL (on phage, pIII fusion) [Phage-564] | 1.5
51 | YCDGHSVEYMEKCL (on phage, pIII fusion) [Phage-476] | 1.65

What follows are binders tested against Anti-CD28 Fab (SEQ ID NOs: 202, 203) (assay: phage binding ELISA on captured Fab, competitor CD28 antigen;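 note: clonal phage supernatant binding in wells preincubated with CD28 antigen in blocking buffer, detected by HRP-conjugated anti-M13 antibody ELISA, compared with blocking buffer alone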).
Experimental: as §1

Row | Binder | Anti-CD28 Fab signal in the presence of CD28
52 | YCDGHDEQYLMKCL [Phage-879] | 0.07
53 | YCTGWQVAYMQNCF [Phage-884] | 0.06
54 | YCEGHIKDYMTKCL [Phage-875] | 0.08
55 | YCDGHTWMYKQKCL [Phage-886] | 0.08
56 | YCEGHMQWYMAKCL [Phage-877] | 0.09
57 | YCEGHAPVYMQKCL [Phage-878] | 0.08
58 | YCDGHWPGYLWKCL [Phage-883] | 0.06
59 | YCEGHLGLYMKKCL [Phage-871] | 0.06
60 | YCAGHDAEYMQKCL [Phage-876] | 0.06
61 | YCAGHIPQYLNKCL [Phage-873] | 0.07
62 | YCAGHAQEYMRKCL [Phage-872] | 0.07
63 | YCDGHSTEYMWKCL [Phage-874] | 0.06
64 | YCAGHLDEYMEKCL [Phage-885] | 0.07
65 | YCDGHSQIYMSKCL [Phage-882] | 0.06

Each binder was assayed against T1, anti-CD28 Fab (SEQ ID NOs: 202, 203) (assay: phage ELISA on captured Fab, wells pre-incubated with CD28 antigen (competitor);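 note: clonal phage ELISA with wells pretreated with CD28 plus blocking buffer before phage addition, bound phage detected by HRP-linked anti-M13 antibody, reference wells got blocking buffer only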).
Experimental: as §1

Row | Binder | Anti-CD28 Fab signal in the presence of CD28
66 | YCDGHDVEYMAKCL (on phage, pIII fusion) [Phage-470] | 0.07
67 | YCDGHDVEYMSKCL (on phage, pIII fusion) [Phage-486] | 0.05
68 | YCDGHRVEYMAKCL (on phage, pIII fusion) [Phage-522] | 0.09
69 | YCDGHAQEYRLKCL (on phage, pIII fusion) [Phage-477] | 0.07
70 | YCDGHSLLYLSKCL (on phage, pIII fusion) [Phage-472] | 0.07
71 | YCEGHLSQYMSKCL (on phage, pIII fusion) [Phage-466] | 0.07
72 | YCDGHSREYMSKCL (on phage, pIII fusion) [Phage-458] | 0.1
73 | YCDGHSREYMNKCL (on phage, pIII fusion) [Phage-469] | 0.06
74 | YCDGHSPAYIWKCL (on phage, pIII fusion) [Phage-450] | 0.08
75 | YCDGHSADYMAKCL (on phage, pIII fusion) [Phage-462] | 0.07
76 | YCDGHSPEYIGKCL (on phage, pIII fusion) [Phage-467] | 0.07
77 | YCDGHSLEYIGKCL (on phage, pIII fusion) [Phage-494] | 0.06
78 | YCDGHAPQWMAKCL (on phage, pIII fusion) [Phage-457] | 0.1
79 | YCDGHIGLYLNKCL (on phage, pIII fusion) [Phage-463] | 0.06
80 | YCEGHLPQYMRPCL (on phage, pIII fusion) [Phage-465] | 0.08
81 | YCDGHSWQYISKCL (on phage, pIII fusion) [Phage-455] | 0.05
82 | YCAGHLPEFMDKCL (on phage, pIII fusion) [Phage-468] | 0.06
83 | YCEGHSLMYMWKCL (on phage, pIII fusion) [Phage-474] | 0.08
84 | YCEGHSLMYMAKCL (on phage, pIII fusion) [Phage-563] | 0.06

Row | Binder | Anti-CD28 Fab signal in the presence of CD28
85 | YCDGHSAEYLLKCL (on phage, pIII fusion) [Phage-478] | 0.07
86 | YCDGHSAEYLSKCL (on phage, pIII fusion) [Phage-561] | 0.07
87 | YCDGHAAEYMAKCV (on phage, pIII fusion) [Phage-459] | 0.07
88 | YCDGHSEQYMSKCL (on phage, pIII fusion) [Phage-451] | 0.07
89 | YCDGHSLQYMSKCL (on phage, pIII fusion) [Phage-589] | 0.06
90 | YCDGHSEVYMAKCL (on phage, pIII fusion) [Phage-471] | 0.06
91 | YCDGHAQEYMDKCL (on phage, pIII fusion) [Phage-500] | 0.08
92 | YCDGHAKEYMDKCL (on phage, pIII fusion) [Phage-452] | 0.08
93 | YCEGHLAVYMEKCL (on phage, pIII fusion) [Phage-473] | 0.12
94 | YCEGHLPMYMIKCL (on phage, pIII fusion) [Phage-464] | 0.09
95 | YCEGHAQEYMNKCL (on phage, pIII fusion) [Phage-460] | 0.06
96 | YCDGHSSLYMHKCL (on phage, pIII fusion) [Phage-454] | 0.07
97 | YCEGHAPQYMNKCL (on phage, pIII fusion) [Phage-456] | 0.08
98 | YCEGHAPQYMTKCL (on phage, pIII fusion) [Phage-461] | 0.08
99 | YCAGHAAEYMTKCL (on phage, pIII fusion) [Phage-475] | 0.07
100 | YCDGHSTEYMEKCL (on phage, pIII fusion) [Phage-453] | 0.08
101 | YCDGHSQEYMEKCL (on phage, pIII fusion) [Phage-564] | 0.06
102 | YCDGHSVEYMEKCL (on phage, pIII fusion) [Phage-476] | 0.09
